Test results published in patent publication US20220281976A1 (Alector, published 2022).

Legend:
[1] = molecular target: T1, human monomeric His tagged CD33 protein (human, UniProt P20138 18-259); assay: ForteBio BLI or MSD-SET, IgG, monomeric antigen;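 also: BLI: antibodies captured on AHQ sensors, 100 nM antigen association 5 min, dissociation 5 min, 1:1 fit. MSD-SET: antigen fixed at 50 pM, antibody titrated, quadratic fit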
T1 construct: also called hCD33-His

human CD33 [2] = molecular target: T2, human CD33 (human, UniProt P20138 18-364); assay: flow cytometry, human primary dendritic cells;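 also: binding of anti-CD33 antibodies (10 ug/ml, 1 h on ice) to human primary dendritic cells, detected with a PE-labelled secondary antibody, reported as flow cytometry MFI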
T2 construct: CD33 on human primary dendritic cells, macrophages, monocytes and T cells and on CHO cells expressing recombinant human CD33; also called Siglec-3; hCD33
T2 sequence (P20138 18-364): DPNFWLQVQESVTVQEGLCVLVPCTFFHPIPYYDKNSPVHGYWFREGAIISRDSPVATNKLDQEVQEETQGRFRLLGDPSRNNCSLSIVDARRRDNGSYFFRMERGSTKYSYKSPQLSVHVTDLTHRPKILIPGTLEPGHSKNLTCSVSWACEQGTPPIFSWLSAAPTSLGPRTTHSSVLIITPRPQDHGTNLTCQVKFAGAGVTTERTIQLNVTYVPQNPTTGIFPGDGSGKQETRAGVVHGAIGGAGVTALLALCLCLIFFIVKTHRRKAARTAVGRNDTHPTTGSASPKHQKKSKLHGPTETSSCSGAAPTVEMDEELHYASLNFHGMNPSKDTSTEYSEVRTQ
Protocol: (§1) Initial characterization of CD33 antibodies involved determining their ability to bind CD33 expressed on a CHO cell line, on human primary monocytes, human primary macrophages, human primary dendritic cells, and on human primary T cells. Cells were harvested, plated at 10⁶/ml in a 96 well plate, and incubated in 100 ul PBS containing 2% FBS, 2 mM EDTA and 10 ug/ml Mab and Fc blocking reagent for 1 hour in ice. Cells were washed twice and incubated in 100 ul PBS containing 2% FBS, 2 mM EDTA and 5 ug/ml PE-conjugated secondary antibody for 30 minutes on ice. Cells were washed twice in cold PBS and analyze by flow cytometry on a BD FACS Canto. Data analysis and calculation of MFI values was performed with FlowJo (TreeStar) software version 10.0.7.

human CD33 [3] = molecular target: T2, human CD33; assay: cell-based or functional assay
human CD33 [4] = molecular target: T2, human CD33; assay: flow cytometry, human primary monocytes; set-up: reference not given here;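 also: binding of anti-CD33 antibodies at 10 ug/ml to human primary monocytes, 1 h on ice, detected by PE-labelled secondary antibody, flow cytometry readout as mean fluorescence intensity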
[5] = molecular target: T3, human CD33 Fc fusion protein (human, UniProt P20138 18-259); assay: RBC adhesion to plate-bound CD33-Fc; antibody 1.0 ug/ml;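 also: red blood cells adhering to plate-coated CD33-Fc after 1 h antibody pretreatment, then 1 h at room temperature, bound cells read as peroxidase activity after lysis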
T3 construct: also called hCD33-Fc; human CD33/Fc chimera (R&D Systems)
T3 sequence (P20138 18-259 limits assumed): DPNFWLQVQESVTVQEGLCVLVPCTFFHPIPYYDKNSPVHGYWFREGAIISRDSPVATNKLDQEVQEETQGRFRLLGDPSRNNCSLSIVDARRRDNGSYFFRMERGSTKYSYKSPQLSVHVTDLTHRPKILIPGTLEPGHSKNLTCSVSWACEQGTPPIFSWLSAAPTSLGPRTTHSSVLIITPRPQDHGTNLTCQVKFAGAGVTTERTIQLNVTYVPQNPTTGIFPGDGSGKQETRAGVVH

[6] = molecular target: T3, human CD33 Fc fusion protein; assay: ForteBio BLI or MSD-SET, IgG, avid;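 also: Anti-CD33 IgG affinity by BLI, IgG captured on AHQ sensors with antigen in solution and a one-to-one kinetic fit, or by MSD solution equilibrium titration with quadratic fit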
Protocol: The binding affinity of each anti-CD33 antibody was determined by measuring their KD by ForteBio or MSD-SET. […] Briefly, ForteBio affinity measurements were performed by loading IgGs on-line onto AHQ sensors. Sensors were equilibrated off-line in assay buffer for 30 min and then monitored on-line for 60 seconds for baseline establishment. Sensors with loaded IgGs were exposed to 100 nM antigen for 5 minutes, then transferred to assay buffer for 5 min for off-rate measurement. Kinetics were analyzed using the 1:1 binding model.
Solution equilibrium titrations (SET) were performed in PBS+0.1% IgG-Free BSA (PBSF) with antigen held constant at 50 pM and incubated with 3-to 5-fold serial dilutions of antibody starting at 10 nM. Antibodies (20 nM in PBS) were coated onto standard bind MSD-ECL plates overnight at 4° C. or at room temperature for 30 min. Plates were then blocked for 30 min with shaking at 700 rpm, followed by three washes with wash buffer (PBSF+0.05% Tween 20). SET samples were applied and incubated on the plates for 150s with shaking at 700 rpm followed by one wash. Antigen captured on a plate was detected with 250 ng/mL sulfotag-labeled streptavidin in PBSF by incubation on the plate for 3 min. The plates were washed three times with wash buffer and then read on the MSD Sector Imager 2400 instrument using 1× Read Buffer T with surfactant. The percent free antigen was plotted as a function of titrated antibody in Prism and fit to a quadratic equation to extract the KD. To improve throughput, liquid handling robots were used throughout MSD-SET experiments, including SET sample preparation.

human CD33 [7] = molecular target: T2, human CD33; assay: flow cytometry, human primary macrophages;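 also: binding of CD33 antibodies at 10 µg/ml to human primary macrophages, 1 h on ice, detected with PE-labelled secondary antibody by flow cytometry, reported as MFI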
Protocol: as §1

[8] = molecular target: T3, human CD33 Fc fusion protein; assay: RBC adhesion to plate-bound CD33-Fc; antibody 0.5 ug/ml;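 also: Plate-coated CD33-Fc preincubated 1 h with antibody, then red blood cells added for 1 h at room temperature, adherent cells lysed and quantified via peroxidase activity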
[9] = molecular target: T4, mouse CD33 Fc fusion protein (mouse, UniProt Q63994 18-240, limits assumed); assay: ForteBio BLI or MSD-SET
T4 construct: also called mCD33-Fc
T4 sequence: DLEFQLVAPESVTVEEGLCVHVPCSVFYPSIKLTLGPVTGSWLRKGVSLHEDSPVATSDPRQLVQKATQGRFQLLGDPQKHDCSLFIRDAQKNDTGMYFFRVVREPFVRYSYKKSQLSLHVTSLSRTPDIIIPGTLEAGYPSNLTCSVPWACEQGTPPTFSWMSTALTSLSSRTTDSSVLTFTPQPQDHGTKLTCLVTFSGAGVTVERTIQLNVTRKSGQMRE

human CD33 [10] = molecular target: T2, human CD33; assay: flow cytometry, human primary T cells;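 also: binding of anti-CD33 antibodies at 10 ug/ml to human primary T cells, 1 h on ice, detected with PE-labelled secondary antibody, read as flow cytometry MFI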

T1 sequence (P20138 18-259 limits assumed): as the sequence (P20138 18-259 limits assumed) above

Row | Kd [1] [nM] | DC MFI (human CD33 [2]) | Percent CD33 Surface Expression, DC % CD33 (human CD33 [3]) [%] | Percent CD33 Surface Expression, Macrophage % CD33 (human CD33 [3]) [%] | Percent CD33 Surface Expression, Monocyte % CD33 (human CD33 [3]) [%] | Monocyte MFI (human CD33 [4]) | Percent RBC Binding to CD33 [5] [%] | Kd [6] [nM] | Macrophage MFI (human CD33 [7]) | Percent RBC Binding to CD33 [8] [%] | binding result [9] | T cell MFI (human CD33 [10]) | Binder
1 | 5.76 | 1520 | 27.9 | 63.5 | 29.1 | 109 | 9.8 | 1.11 | 715 | 14.5 | no binding (tested: 100 nM) | 262 | C-3 (antibody, V domains shown, human IgG1) VH: QVQLVQSGAEVKKPGSSVKVSCKASGGTFSNYAISWVRQAPGQGLEWMGGIIPIFGTANYAQKFQGRVTITADESTSTAYMELSSLRSEDTAVYYCARDTGTYVTGDGMDVWGQGTTVTVSS VL: EIVMTQSPATLSVSPGERATLSCRASQSVSSNLAWYQQKPGQAPRLLIYGASTRATGIPARFSGSGSGTEFTLTISSLQSEDFAVYYCQQYDVWPITFGGGTKVEIK
2 | 7.12 | 1030 | 23.3 | 64.3 | 41.3 | 106 | 7.6 | 1.56 | 795 | 13 | no binding (tested: 100 nM) | 231 | C-11 (antibody, V domains shown, human IgG1) VH: QVQLVQSGAEVKKPGSSVKVSCKASGGTFSNYAISWVRQAPGQGLEWMGGIIPIFGTANYAQKFQGRVTITADESTSTAYMELSSLRSEDTAVYYCARDTGTYVTGDGMDVWGQGTTVTVSS VL: EIVMTQSPATLSVSPGERATLSCRASQSVSSNLAWYQQKPGQAPRLLIYSASTRATGIPARFSGSGSGTEFTLTISSLQSEDFAVYYCQQYIVLPITFGGGTKVEIK
3 | 6.24 | 1230 | 19.5 | 44.5 | 31.5 | 107 | 12.3 | 1.41 | 792 | 13.8 | no binding (tested: 100 nM) | 246 | C-10 (antibody, V domains shown, human IgG1) VH: QVQLVQSGAEVKKPGSSVKVSCKASGGTFSNYAISWVRQAPGQGLEWMGGIIPIFGTANYAQKFQGRVTITADESTSTAYMELSSLRSEDTAVYYCARDTGTYVTGDGMDVWGQGTTVTVSS VL: EIVMTQSPATLSVSPGERATLSCRASQSVSSNLAWYQQKPGQAPRLLIYGASTRATGIPARFSGSGSGTEFTLTISSLQSEDFAVYYCQQYVNLPITFGGGTKVEIK
4 | 71.5 | 48 | 87.9 |  | 83 | 569 | 92.3 | 9.65 | 369 | 85 | no binding (tested: 100 nM) | 144 | C-95 (antibody, V domains shown, human IgG1) VH: not shown VL: DIVMTQSPDSLAVSLGERATINCKSSQSVLYSSNNKNYLAWYQQKPGQAPRLLIYGASSRATGIPDRFSGSGSGTDFTLTISRLEPEDFAVYYCQQDYSSPLTFGGGTKVEIK
5 | 15.7 | 107 | 73.9 |  | 79.2 | 918 | 76.2 | 3.4 | 537 | 98.5 | no binding (tested: 100 nM) | 42.3 | C-92 (antibody, V domains shown, human IgG1) VH: EVQLVESGGGLVKPGGSLRLSCAASGFTFSSYSMNWVRQAPGKGLEWVSSISSSSSYIYYADSVKGRFTISRDNAKNSLYLQMNSLRAEDTAVYYCARLGATATTDYAYGMDVWGQGTTVTVSS VL: not shown
6 | 4.17 | 1700 | 26 | 63.4 | 33.1 | 175 | 20 | 1.09 | 886 | 27.8 | no binding (tested: 100 nM) | 307 | C-9 (antibody, V domains shown, human IgG1) VH: QLQLQESGPGLVKPSETLSLTCTVSGGSISSSSYYWGWIRQPPGKGLEWIGSIYYSGSTYYNPSLKSRVTISVDTSKNQFSLKLSSVTAADTAVYYCARESGFAGLDPWGQGTLVTVSS VL: EIVLTQSPGTLSLSPGERATLSCRASQSVSSSFLAWYQQKPGQAPRLLIYGASSRATGIPDRFSGSGSGTDFTLTISRLEPEDFAVYYCQQSEDWPTFGGGTKVEIK
7 | 7.47 | 1120 | 23.6 | 68.5 | 54.2 | 208 | 17.8 | 1.84 | 1080 | 6.34 | no binding (tested: 100 nM) | 182 | C-12 (antibody, V domains shown, human IgG1) VH: EVQLLESGGGLVQPGGSLRLSCAASGFTFSNYAMSWVRQAPGKGLEWVSAISGSGGSTYYADSVKGRFTISRDNSKNTLYLQMNSLRAEDTAVYYCARDGSRYSYGLVAYGMDVWGQGTTVTVSS VL: EIVLTQSPGTLSLSPGERATLSCRASQSVSSSFLAWYQQKPGQAPRLLIYGASSRATGIPDRFSGSGSGTDFTLTISRLEPEDFAVYYCQQSQLRPTFGGGTKVEIK
8 | 6.94 | 1370 | 42.1 | 87.3 | 51.9 | 204 | 12.7 | 1.95 | 980 | 12.7 | no binding (tested: 100 nM) | 193 | C-8 (antibody, V domains shown, human IgG1) VH: not shown VL: EIVLTQSPGTLSLSPGERATLSCRASQSVSSSFLAWYQQKPGQAPRLLIYGASSRATGIPDRFSGSGSGTDFTLTISRLEPEDFAVYYCQQVASPPPTFGGGTKVEIK
